Experimental data reported in US20110082421A1.

Columns and labels:
[1] = biological target: AGE-modified bovine serum albumin (AGE-BSA), prepared by incubating BSA in 1.67 M glucose for two months (bovine) (UniProt P02769); test: FIG. 1D final capacity after 6 cycles of regeneration, ethanol storage and 4 h at 37 C (RET); batch adsorption, competitive ELISA
[2] = biological target: AGE-modified bovine serum albumin (AGE-BSA), prepared by incubating BSA in 1.67 M glucose for two months (bovine) (UniProt P02769); test: FIG. 1D initial capacity of the RET series; batch adsorption, competitive ELISA
[3] = biological target: AGE-modified bovine serum albumin (AGE-BSA), prepared by incubating BSA in 1.67 M glucose for two months (bovine) (UniProt P02769); test: FIG. 1C final capacity after 34 days in 20% ethanol at 4 C; batch adsorption, competitive ELISA
[4] = biological target: AGE-modified bovine serum albumin (AGE-BSA), prepared by incubating BSA in 1.67 M glucose for two months (bovine) (UniProt P02769); test: FIG. 1C initial capacity before storage in 20% ethanol; batch adsorption, competitive ELISA
[5] = biological target: AGE-modified bovine serum albumin (AGE-BSA), prepared by incubating BSA in 1.67 M glucose for two months (bovine) (UniProt P02769); test: FIG. 1D initial capacity of the RE series; batch adsorption, competitive ELISA
[6] = biological target: AGE-modified bovine serum albumin (AGE-BSA), prepared by incubating BSA in 1.67 M glucose for two months (bovine) (UniProt P02769); test: FIG. 1A thermal stability, final capacity (4 h at 37 C); batch adsorption, competitive ELISA
[7] = biological target: AGE-modified bovine serum albumin (AGE-BSA), prepared by incubating BSA in 1.67 M glucose for two months (bovine) (UniProt P02769); test: FIG. 1D final capacity after cycles of regeneration and ethanol storage (RE), 1 h at 37 C; batch adsorption, competitive ELISA
[8] = biological target: AGE-modified bovine serum albumin (AGE-BSA), prepared by incubating BSA in 1.67 M glucose for two months (bovine) (UniProt P02769); test: FIG. 1D RE series, after processing cycles
[9] = biological target: AGE-modified bovine serum albumin (AGE-BSA), prepared by incubating BSA in 1.67 M glucose for two months (bovine) (UniProt P02769); test: FIG. 1D RET series, after 6 processing cycles
[10] = biological target: AGE-modified bovine serum albumin (AGE-BSA), prepared by incubating BSA in 1.67 M glucose for two months (bovine) (UniProt P02769); test: FIG. 1A thermal stability, initial capacity (1 h at 37 C); batch adsorption, competitive ELISA

Sequence of AGE-modified bovine serum albumin (AGE-BSA), prepared by incubating BSA in 1.67 M glucose for two months (bovine) (P02769 25-607 limits assumed): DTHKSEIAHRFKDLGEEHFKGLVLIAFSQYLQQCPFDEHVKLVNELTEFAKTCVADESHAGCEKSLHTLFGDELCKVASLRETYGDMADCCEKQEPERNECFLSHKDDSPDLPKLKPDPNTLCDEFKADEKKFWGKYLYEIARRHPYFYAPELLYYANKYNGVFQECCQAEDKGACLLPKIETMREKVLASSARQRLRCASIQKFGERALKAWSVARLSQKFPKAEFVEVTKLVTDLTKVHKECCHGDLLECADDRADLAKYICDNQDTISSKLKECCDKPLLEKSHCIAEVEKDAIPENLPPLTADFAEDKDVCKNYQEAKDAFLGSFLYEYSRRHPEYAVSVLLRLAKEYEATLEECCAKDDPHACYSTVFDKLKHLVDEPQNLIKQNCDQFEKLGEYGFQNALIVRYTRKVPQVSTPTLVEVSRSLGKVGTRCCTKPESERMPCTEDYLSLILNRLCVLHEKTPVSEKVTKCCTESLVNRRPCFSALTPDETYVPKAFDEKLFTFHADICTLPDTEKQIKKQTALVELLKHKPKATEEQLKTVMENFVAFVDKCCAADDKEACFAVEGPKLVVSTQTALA

RAGE-His construct (extracellular region of human RAGE, amino acid residues 23 through 340, with C-terminal six-histidine tag), immobilized on agarose (from UniProt Q15109 23-340) (receptor)
binding capacity (mg AGE-BSA/ml RAGE gel) [1]: 0.79 | binding capacity (mg AGE-BSA/ml RAGE gel) [2]: 0.94 | binding capacity (mg AGE-BSA/ml RAGE gel) [3]: 0.57 | binding capacity (mg AGE-BSA/ml RAGE gel) [4]: 0.6 | binding capacity (mg AGE-BSA/ml RAGE gel) [5]: 0.92 | binding capacity (mg AGE-BSA/ml RAGE gel) [6]: 0.94 | binding capacity (mg AGE-BSA/ml RAGE gel) [7]: 0.82 | decrease of binding capacity against the initial value [8]: 10% | decrease of binding capacity against the initial binding capacity [9]: 16% | binding capacity (mg AGE-BSA/ml RAGE gel) [10]: 0.92
